Test: soluble on expression in E. coli; label from the status in PepcDB or PDB records

Row | Sequence | soluble on expression in E. coli
1 | MNDLTLSPIAIIHTPYKEKFSVPRQPNLVEDGVGIVELLPPYNSPEAVRGLEQFSHLWLIFQMDQIQQGKWQPTVRPPRLGGNQRVGVFASRATHRPNPLGMSKVELRQVECINGNIFLHLGAVDLVDGTPIFDIKPYIAYADSEPNAQSSFAQEKLPVKMTVEFTEQAKSAVKKREEKRPHLSRFIRQVLEQDPRPAYQQGKPSDRIYGMSLYEFNVKWRIKAGTVNCVEVIEIEKDKLEHHHHHH | soluble
2 | MGSDKIHHHHHHMFKTIHPLSVARHGKLRLKPVSDYRFAAQEAVIGLVGAEIHKAIHAFPIAFLRSAHAGGTSCQMVGLLSVTPGQNLLVSPDGRWLGDYIPAALRAYPFVLARSQEDADTRLPCLDEDCGLLSESEGQPLFSEDGQLSDFSRRIIDFLTATERNREATQKGVDVLEKAQLFTPWSLQVVIQKQTKAIEGFHVIDETKLNQLDDETWLALRRAGVLPLVYGHLLSLNRTDLLGQLSGLQAQLAQQLTARPKLDDMLDFGDESILQF | not soluble
3 | MGSDKIHHHHHHMYRSRNRPKRGGENEVKGPNSALTQFLREEGISAENIKQKWYQRQSKKQEDATDEKKGKAEDDSFTAEISRVVEDEEIDEIGTGSGTETERAQVSYDARMKLVPADSDEEEYETSHISDTPVSLSSANDRESLTKKRQNTAKIIQNRRRKRKRAADLLDRRVNKVSSLQSLCITKISENISKWQKEADESSKLVFNKLRDVLGGVSTANLNNLAKALSKNRALNDHTLQLFLKTDLKRLTFSDCSKISFDGYKTLAIFSPHLTELSLQMCGQLNHESLLYIAEKLPNLKSLNLDGPFLINEDTWEKFFVIMKGRLEEFHISNTHRFTDKSLSNLLINCGSTLVSLGLSRLDSISNYALLPQYLVNDEFHSLCIEYPFNEEDVNDEIIINLLGQIGRTLRKLVLNGCIDLTDSMIINGLTAFIPEKCPLEVLSLEESDQITTDSLSYFFSKVELNNLIECSFRRCLQLGDMAIIELLLNGARDSLRSLNLNSLKELTKEAFVALACPNLTYLDLGFVRCVDDSVIQMLGEQNPNLTVIDVFGDNLVTEKATMRPGLTLIGRQSDSI | not soluble
4 | MQLGDKQLVVQLACANQQRHNTNLPNSASAIAGIDLSQGAGRATEILCLMNMVTEDELKADDEYEEILEDVRDECSKYGIVRSLEIPRPYEDHPVPGVGKVFVEFASTSDCQRAQAALTGRKFANRTVVTSYYDVDKYHNRQF | not soluble
5 | MGSDKIHHHHHHMNPSSRHPQHSDTAASGASEGVPRRYASGRQYELRRGDALAVVTELAAGLRLYSRGGVQLTETYGDGDIPPGATGITLAPWANRVEDGVWYLNGKKQQLDITEVSRNNASHGLLRNAAYELVDEAEFSVTLEAPVFPQHGYPFLVRHRVQYLLAEDLGLVVRQTLLNDSQAPAPFVLGAHPYLRLGDVPASDLVLTVGTGSRLVADERLIPRSSEQVDGATDLRGGRTVSELDIDVAYTDLTFDGGVARQTLKASDGRSVSLWQDENCSYVHVFVTDQYPGRAKAVAIEPMTGPANAFNSGDGLRWLPAGESFTMTWGISASL | not soluble
6 | MKRSAFFISDGTGITAETLGQSLLAQFENITFNKFTRPYIDSVEKARAMVQQINNAADKDDVRPIIFDTIVNQDIREILATSNGFMIDIFSTFLAPLEQELSSHSSYSVGKSHSIGHNSNYMERIEAVNFALDNDDGARTHYYDKADIILVGVSRCGKTPTCLYMAMQFGIRAANYPLTEDDMERLQLPPALKQHREKLFGLTIDPDRLTAIRHERKPNSRYSSYAQCEFEVREVESLFRRENIPNINSTHFSVEEISAKVLVEKGVERRFKLEHHHHHH | not soluble
7 | MGHHHHHHSHSHTIRDLKYTIENPRHFVDSHHQKPVNAIIEHVRDGSVVRALLLPDYYLVTVMLSGIKCPTFRREADGSETPEPFAAEAKFFTESRLLQRDVQIILESCHNQNILGTILHPNGNITELLLKEGFARCVDWSIAVYTRGAEKLRAAERFAKERRLRIWRDYVAPTANLDQK | not soluble
8 | MNKSRVVVGMSGGVDSSVAALLLKQQGYDVTGLFMKNWEEDDTDEYCSSRQDFLDAASVADILDIPLEVVNFSTEYRERVFNLFLKEYQAGRTPNPDVLCNSEIKFRAFLDHALNLGADWIATGHYAQVHETDGLFQLLKGEDGNKDQSYFLYRLNQQQLSHTIFPIGHLYKREVRKIAREHRLPNSTKKDSTGICFIGERPFREFLNRYLPANPGEIHTLDDQVVGEHLGVMYYTIGQRQGLGIGGTRQGSEQPWFVSGKDIKKNVLYVVQGHDHPALLRSSLTAADLSWISGTPPHQNWVYAAKIRYRQTDAPCAITHFEHDSCQIGFAAPQWGITPGQSVVVYESKVCLGGGVIIGSNDLEHHHHHH | not soluble
9 | MGAVNKDVFATGAGQVDPAKVLSPGLVYDATTEDYLKFIQGTGMDLGMEGLGTTQARDMNVPSFALGNLAGKIEVTRTLTALTPGTYRASVNVPGVNVKVTPSVLTFGAPGEKKTFKVQFENNNAALGKFAMGSLNWQGANKTVTSPIAVRPQSVIALEHHHHHH | not soluble
10 | MKEYLTRSNISYFSIGSGTPIIFLHGLSLDKQSTCLFFEPLSNVGQYQRIYLDLPGMGNSDPISPSTSDNVLETLIEAIEEIIGARRFILYGHSYGGYLAQAIAFHLKDQTLGVFLTCPVITADHSKRLTGKHINILEEDINPVENKEYFADFLSMNVIINNQAWHDYQNLIIPGLQKEDKTFIDQLQNNYSFTFEEKLKNINYQFPFKIMVGRNDQVVGYQEQLKLINHNENGEIVLLNRTGHNLMIDQREAVGFHFDLFLDELNSNN | soluble
11 | MGSDKIHHHHHHMASYHLNAKMAQDIVSRTMQIIDSNINVMDARGKIIGSGDQERLGELHEGALLALSQGRVVDIDDAVARHLHGVRPGINLPLRIDGEIVGVIGLTGNPSQLRQYGELVCMTAEMMLEQARLLHMLAQDSRLREELVLNLVRTDDLSPALMEWAQRLGIDMNKPRVAAVIEVDSGQLGVDSAMAELQQLQTLLTTPERDNLIAIVSLTEMVVLKPALNSHGRWDAEEHRRRVDTLMSRMAESSRLRVRLALGNYFAGPGSIARSYRTARTTMSVGKQRMPAQRCYYYQDLMLPVLLDSLRGGWQANELVRPLSKLKAMDGNGLLRRTLGAWFRNNVQPGATAKALFIHRNTLEYRLNRISELTGLDLGNFDDRLLLYVALQLDEEE | not soluble
12 | MGSDKIHHHHHHMIGKIEPLGTSTGKILYNSHCQNILDLSVAETMEIFKSSGVILFRDFGVTPKQMKDFSEQFSGKHIIDFTKVSIDSDKYVNFVDGGMDGLIPHCENSCFPFRPDVIWFCCTVPAEQEGETLFWDGIRVWEELSQESKQLFLSKQLKFSYKNVPVDILKGIIGSNANTIDDIKQRLDSVDGVSYQFNDDKTVSVEYTCSSVVNNKYNHQNAFANHFWVYQKRTEEAIFDDGSRASDEVADEIERIFDKLTEKIPWKAGDLVMMDNSRFLHGRGAFTDNRRQVFTTLSNLKF | not soluble
13 | MTHIIIDGDACPVVDSIIDLTTETGIFVTIIRSFSHFSNQLYPPHVSTLYVDDGPDAVDYKIVQLSTKDDIVVTQDYGLASLLVDKVLIVMHHNGKIYNSKNIQQLLDKRYINAQIRKQGGRHKGPPPFTKQDQKVFEQSLLKVIHRIKELDLEHHHHHH | soluble
14 | RAKQQAAKSERRVRELTEATNDILWEFTADLSEVLVINSAYEDIWGRSVAKLRENPHDFLNGIHPEDRELMKDTMQSLMDGESADVECRVNATEEYQRWVWIQGEPITNDAGETVRVAGFARDIT | soluble
15 | MKMKYEWRKQEKTTYATKKQPQLLTIPAQTFMSIHGTGNPNGPEFQTHLQTLYPAAYGLKHAYKQYAQTQACEFDDYVVFPLEGVWSLTIKGQQLDHLDKDEFSYDIMIRVPDFVPNELIAPALAAVKAKKQLPTEQINVQQFDAMQVAQILHLGAYDDEPASFAKIDELVANQGMHRTSKIHREIYLSDARRVAPDKLKTILRYRVASN | not soluble
16 | MSLKVSAHNGNSDPSGAVQRRQSFRKSKTEDTVGTGNNGAANGGGGGAAANNNQMLENDLLSKYMGNQSPARQQVKKNLLNGTSGGGESVPAKPKTYDARCYVQNGSINFGKIITDEVLAADYDLVEAAKKMSDFAGTTALIAVIHRTKLIVANVGDSRGVMCDFKGNAIPLSFDHKPQQVREQKRIADAGGFIAFKGVWRVAGILATSRALGDYPLKEKNLVIANPDVLSFDLVDHRPQFLILASDGLWDTFTNEEAVAYVRERLDEPHFGAKSIALQSYSRGSVDNITVLVIVLKNGRYEIGSSSNEGHHHHHH | soluble
17 | MPEIITPIITPFTKDNRIDKEKLKIHAENLIRKGIDKLFVNGTTGLGPSLSPEEKLENLKAVYDVTNKIIFQVGGLNLDDAIRLAKLSKDFDIVGIASYAPYYYPRMSEKHLVKYFKTLCEVSPHPVYLYNYPTATGKDIDAKVAKEIGCFTGVKDTIENIIHTLDYKRLNPNMLVYSGSDMLIATVASTGLDGNVAAGSNYLPEVTVTIKKLAMERKIDEALKLQFLHDEVIEASRIFGSLSSNYVLTKYFQGYDLGYPRPPIFPLDDEEERQLIKKVEGIRAKLVELKILKE | soluble
18 | MGSDKIHHHHHHMAESSFVYNGVEITWLKHAGFRIKGSRVVYIDPYDIPEELEKADVILVTHDHFDHMDVKSIRKLSKDDTVVVHPSGCIIEGFESCEVGVGTEAEVKGVKIKAVPAYNVDKPFHKENCVGYIVGIDGVKIYHAGDTDRIPEMKEIEVDIALLPVGGTYTMNLQEAIEAAKDIRAKYYIPMHFGAIPQTSADPEEFKRKVKGAVILKPLF | not soluble
19 | GSHMPAPHGGILQDLIARDALKKNELLSEAQSSDILVWNLTPRQLCDIELILNGGFSPLTGFLNENDYSSVVTDSRLADGTLWTIPITLDVDEAFANQIKPDTRIALFQDDEIPIAILTVQDVYKPNKTIEAEKVFRGDPEHPAISYLFNVAGDYYVGGSLEAIQLPQHYDYPGLRKTPAQLRLEFQSRQWDRVVAFQTRNPMHRAHRELTVRAAREANAKVLIHPVVGLTKPGDIDHHTRVRVYQEIIKRYPNGIAFLSLLPLAMRMSGDREAVWHAIIRKNYGASHFIVGRDHAGPGKNSKGVDFYGPYDAQELVESYKHELDIEVVPFRMVTYLPDEDRYAPIDQIDTTKTRTLNISGTELRRRLRVGGEIPEWFSYPEVVKILRESNPPRPKQGFSIVLGNSLTVSREQLSIALLSTFLQFGGGRYYKIFEHNNKTELLSLIQDFIGSGSGLIIPNQWEDDKDSVVGKQNVYLLDTSSSADIQLESADEPISHIVQKVVLFLEDNGFFVF | soluble
20 | LGKFSQTCYNSAIQGSVLTSTCERTNGGYNTSSIDLNSVIAAVDGSLKWPSNFIEACRNTQLAGSSELAAECKTAAGQFVSTKINLDDHIANIDGTLKYE | soluble
21 | MDSEQINVNLDIGAKAVMLARRAAAAKLNNEKLPEVPDDPIFHEKHGVFTTINTYPDNQLRGCIGFPEPYYELGEGIIKSSIYAATDDPRFDPMEPDELNRVTFELSILTVPQEVTVNPEERPKAITVGKDGIIAVYNGASGLLLPQVATEYRMSAEEFLEALCEKAGLWQGCWKYKKVKISKFQAIVFGEIEPNGKVEQRAAALEHHHHHH | soluble
22 | MTLPVRKSLHDAVLQASKADTWEQATKEWNEVSFIFNGIGRSNCVCGNAIKYAYELFNGVTGQRLFPIGSDCVRHFHRLSLDQQLEEEEKLLRKVENLTRKAQKKEKIKVNKSNFDERLLKWLWEKGVFKPNRGNQFAPERDYQLFLEVFQGGSWTKAEPKKKARMEEVLEKCIKPFLLGKSDDQLYLVKLGKEKIDYEQELRIQAEKERKKRDKIAKQYADNLVLAMGPAERAYQDYFGFTETLTQEERKWEKILFGKNRAERAIKAKQYQKELEKDQRIASQDPIERKQKQTWILNSYFRELPEEKARFSRLLLEYRKSGEVPFSTEYLSDHLIDFFYKMKAFEFEIAPEQVRDFLKKSLQEDHRSSAQGSWIEGILLNCLKPFLERLVI | not soluble
